Substitutions are numbered along the chain they refer to. Bounds are passed on as bounds.

The source of these data is patent US20240115603A1 (Zymeworks, published 2024).

T1: G-CSFR(Ig-CRH)E design 9, purified, tag cleaved (human, UniProt Q99062 26-331)
T1 construct: SPR protein; also called Design 9 G-CSFR(Ig-CRH)E
T1 chain: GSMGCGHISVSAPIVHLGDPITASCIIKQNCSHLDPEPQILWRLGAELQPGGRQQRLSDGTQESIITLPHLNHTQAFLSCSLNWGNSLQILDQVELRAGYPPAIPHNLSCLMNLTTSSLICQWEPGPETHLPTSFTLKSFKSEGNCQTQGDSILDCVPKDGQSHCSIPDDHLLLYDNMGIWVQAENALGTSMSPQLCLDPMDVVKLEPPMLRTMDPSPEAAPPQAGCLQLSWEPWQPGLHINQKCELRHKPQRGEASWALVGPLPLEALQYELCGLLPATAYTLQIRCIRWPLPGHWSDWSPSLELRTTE

T2: WT G-CSFR(Ig-CRH), purified, tag cleaved (human, UniProt Q99062 26-331)
T2 construct: also called G-CSFRWT; wild type G-CSFR ECD
T2 chain: T1 chain with E143R, D169R, D170K, D176Q

T3: WT G-CSF, purified, tag cleaved (human, UniProt P09919 31-206)
T3 construct: also called G-CSFWT
T3 sequence: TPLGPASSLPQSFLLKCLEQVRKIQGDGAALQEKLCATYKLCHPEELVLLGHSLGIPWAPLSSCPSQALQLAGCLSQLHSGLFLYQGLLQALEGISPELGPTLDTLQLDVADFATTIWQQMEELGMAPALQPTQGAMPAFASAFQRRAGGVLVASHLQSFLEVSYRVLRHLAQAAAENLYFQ

T4: G-CSFR(Ig-CRH)E design 30, purified, tag cleaved (human, UniProt Q99062 26-331)
T4 construct: also called Design 30 G-CSFR(Ig-CRH)E
T4 chain: T1 chain with E143R, D170K, D176Q

B1: G-CSFE design 9, purified, tag cleaved (ligand)
chain: T3 sequence with D104R, L108K, D112R, Q119R, E122K
notes: also called Design 9 G-CSFE
B2: G-CSFR(Ig-CRH)E design 401, purified, tag cleaved (receptor)
chain: T1 chain with R43E, E143R, D170K, D176Q, R290D
notes: SPR protein; also called Design 401 G-CSFR(Ig-CRH)E
B3: G-CSFR(Ig-CRH)E design 307, purified, tag cleaved (receptor)
chain: T1 chain with R43E, E143R, D169R, D170K, D176Q, D199K, D202K, R290E
notes: SPR protein; also called Design 307 G-CSFR(Ig-CRH)E
B4: G-CSFE design 134, purified, tag cleaved (ligand)
chain: T3 sequence with E46R, L108K, D112R, E122R, E123R
notes: also called Design #134 G-CSFE
B5: G-CSFR(Ig-CRH)E design 300, purified, tag cleaved (receptor)
chain: T1 chain with F77K, Q93K, E143R, D170K, D176Q
notes: SPR protein; also called Design 300 G-CSFR(Ig-CRH)E
B6: G-CSFR(Ig-CRH)E design 303, purified, tag cleaved (receptor)
chain: T1 chain with E95K, E143R, D170K, D176Q
notes: SPR protein; also called Design 303 G-CSFR(Ig-CRH)E
B7: G-CSFR(Ig-CRH)E design 130, purified, tag cleaved (receptor)
chain: T1 chain with R43E, E143R, D170K, D176Q
notes: SPR protein; also called Design 130 G-CSFR(Ig-CRH)E
B8: G-CSFR(Ig-CRH)E design 304, purified, tag cleaved (receptor)
chain: T1 chain with R43E, E95K, E143R, D170K, D176Q
notes: SPR protein; also called Design 304 G-CSFR(Ig-CRH)E
B9: G-CSFR(Ig-CRH)E design 134 (R41E_R141E_R167D), purified, tag cleaved (receptor)
chain: T1 chain with R43E, D170K, D176Q
notes: also called Design 134 G-CSFR(Ig-CRH)E; design 137 G-CSFR(Ig-CRH)E
B10: G-CSFR(Ig-CRH)E design 402, purified, tag cleaved (receptor)
chain: T1 chain with R43E, E143R, D169E, D170K, D176E, R290E
notes: SPR protein; also called Design 402 G-CSFR(Ig-CRH)E
B11: G-CSFE design 30, purified, tag cleaved (ligand)
chain: T3 sequence with L108K, D112R
notes: also called Design 30 G-CSFE
B12: G-CSFE design 117, purified, tag cleaved (ligand)
chain: T3 sequence with E46R, E122R, E123R
notes: also called Design 117 G-CSFE

Experiment [1] deals with T1, G-CSFR(Ig-CRH)E design 9, purified, tag …. In words: SPR (Biacore T200), G-CSFR(Ig-CRH)E amine-coupled, G-CSFE injected; KD relative to WT:WT control (larger = weaker).
Method: (§1) The SPR binding assays were carried out on a Biacore T200 instrument (GE Healthcare, Mississauga, ON, Canada) with PBS-T (PBS+0.05% (v/v) Tween 20) running buffer at a temperature of 25° C. CMS Series S sensor chip, Biacore amine coupling kit (NHS, EDC and 1 M ethanolamine), and 10 mM sodium acetate buffers were all purchased from GE Healthcare. PBS running buffer with 0.05% Tween20 (PBS-T) was purchased from Teknova Inc. (Hollister, CA).
(§2) To determine binding affinity of G-CSFE to G-CSFRE the G-CSFRE mutant was captured by standard amine coupling as described by the manufacturer (GE LifeSciences). Briefly, immediately after EDC/NHS activation, a 5 μg/mL solution of G-CSFRE in 10 mM NaOAc, pH 5.0, was injected at a flow rate of 5 μL/min until a receptor density of ˜700-900 RU was reached. The remaining active groups were quenched by a 420 s injection of 1 M ethanolamine hydrochloride-NaOH pH 8.5 at 10 μL/min. Using single-cycle kinetics, six concentrations of a two-fold dilution series of the corresponding G-CSFE mutant starting at 200 nM with a blank buffer control were sequentially injected at 25 μL/min for 300s with a 1800s dissociation phase, resulting in a set of sensorgrams with a buffer blank reference. The same sample titration was also performed on a reference cell with no variants captured. The chip was regenerated to prepare for the next injection cycle by one pulse of 10 mM glycine/HCl, pH 2.0, for 30 s at 30 μL/min.
(§3) Double-referenced sensorgrams from duplicate or triplicate repeat injections were analyzed using Biacore™ T200 Evaluation Software v3.0 and fit to the 1:1 Langmuir binding model.
For experiment [2], the target named is T2, WT G-CSFR(Ig-CRH), purified, tag cleaved. As to the kind of experiment: SPR (Biacore T200). In general terms: SPR reads the build-up and loss of mass on a sensor chip optically.
Experiment [3] shares this target. In words: SPR (Biacore T200), WT G-CSFR(Ig-CRH) amine-coupled, G-CSFE injected; KD relative to WT:WT control (larger = weaker).
Experiment [4] deals with T3, WT G-CSF, purified, tag cleaved. In words: SPR (Biacore T200).
Experiment [5] addresses B9. In words: SPR (Biacore T200), G-CSFR(Ig-CRH)E amine-coupled, G-CSFE injected; KD relative to WT:WT control (larger = weaker).
Method: as §1, §2, §3
The target in experiment [6] is T4, G-CSFR(Ig-CRH)E design 30, purified, …. The description is as above.
Method: as §1, §2, §3

With B1, the “KD fold change (vs WT:WT)” value came to 1.2 fold in experiment [1] and 79 fold in experiment [3]. Besides, the “fold weaker KD (vs WT:WT)” value in experiment [2] is at least 20 fold.

As to B2, in experiment [4], the binding result is “no binding”.

B3: in experiment [4], the binding result is “no binding”.

For B4, the “KD fold change (vs WT:WT)” value in experiment [5] was 1 fold; in experiment [3] it was 465 fold. Further, the “fold weaker affinity (vs WT:WT)” value in experiment [2] is about 500 fold.

Consider B5, for which the binding result in experiment [4] is given as “no binding”.

On to B6, for which the binding result in experiment [4] is given as “no binding”.

B7: the binding result in experiment [4] is given as “no binding”.

With B8, in experiment [4], the binding result is given as “no binding”.

For B9, the binding result in experiment [4] is “no binding”.

On to B10, for which the binding result in experiment [4] was “no binding”.

In the case of B11, the “KD fold change (vs WT:WT)” value in experiment [6] came to 11 fold; in experiment [3] it was 20 fold. Moreover, in experiment [2], the “fold weaker KD (vs WT:WT)” value is at least 20 fold.

B12: the “KD fold change (vs WT:WT)” value in experiment [3] amounted to 3.4 fold.
